Experimental data as given in patent publication US20210284690A1.
pKd: −log10 of the molar value.

Legend:
[1] = target: extracellular part of human CD40L (aa 108-261 recombinantly produced in E. coli) (human) (UniProt P29965); assay: BLI (OctetRED96), Fab captured on anti-human Fab-CH1 (FAB2G) sensors, soluble CD40L 2.5-80 nM, 1:1 global fit; purchased
IL-1β = assay: cell-based or functional assay

extracellular part of human CD40L (aa 108-261 recombinantly produced in E. coli) (human), sequence (P29965 108-261 limits assumed): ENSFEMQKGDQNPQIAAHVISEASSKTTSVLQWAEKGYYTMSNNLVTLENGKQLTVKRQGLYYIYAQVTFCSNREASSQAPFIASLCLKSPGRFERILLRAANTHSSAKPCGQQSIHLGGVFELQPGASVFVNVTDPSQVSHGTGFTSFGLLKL

Row | Substance | pKd [1] | NHDF IC50 (pM); inhibition of IL-1β induced IL-6 release from NHDF cells (IL-1β)
1 | Dapirolizumab Fab | > 9.52 | 
2 | Met-huIL-1Ra (Anakinra) (from UniProt P18510 26-177) (ligand) |  | 70 pM
3 | PEG(L30kDa)-Met-huIL-1Ra (from UniProt P18510 26-177) (ligand) |  | 900 pM
